# Results as given in the nanobody polyreactivity screen of Harvey et al. (2022).
# Experiment: yeast display, Sf9 membrane polyspecificity reagent, FACS + sequencing; frameworks hold sequencing errors
# Procedure, shortened: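 A nanobody's polyreactivity label depends on the gate it was sorted from. Yeast display cells were stained with 10% biotinylated, detergent-solubilized Sf9 membrane reagent for 1 hour at 4 °C, enriched on streptavidin microbeads and sorted by FACS. The low and high (top ~1%) gates were set on anti-HA fluorescence for expression and streptavidin fluorescence for reagent binding.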
row,Sequence,polyreactivity (PSR sort gate)
1,QVQLVESGGGLVQAGGSLRLSCAASGFTFYSYAMGWYRQAPGKERELVAAISRSGGSTRYADSVKGRFTISRDNAKNTVYLQMNSLKPEDTAVYYCNAGKYRAYDYWGQGTQVTVSS,high polyreactivity
2,QVQLVESGGGLVQAGGSLRLSCAASGFTFYSYAMGWYRQAPGKERELVASISQSGGRTYYADSVKGRFTISRDNAKNTVYLQMNSLKPEDTAVYYCARQRSYGRSSYSYGYDYWGQGTKVTVSS,high polyreactivity
3,QVQLVESGGGLVQAGGSLRLSCAASGFTFYTFAMGLYRQAPGKERELVASITNGGGTYYADSVKGRFTNSRDNAKNTVYLQMNSLKPEDTAVFYCARRVYYWGRYKDEYNYWGQGTQVTVSS,high polyreactivity
4,QVQLVESGGGLVQAGGSLRLSCAASGFTFYWYAMGWYRQAPGKERELVAAISTSDTSTYADSVKGRFTISRDNAKNTVYLQMNSLKPEDTAVYYCNRRQYYYYGTSRYNYWGQGTQVTVSS,low polyreactivity
5,QVQLVESGGGLVQAGGSLRLSCAASGFTFYWYAMGWYRQAPGKERELVATINWRGDTYYADSVKGRFTISRDNAKNTVYLQMNSLKPEDTAVYYCAATKRLAPRPLRLGYGSYNFCGQGTQVTVSS,high polyreactivity
6,QVQLVESGGGLVQAGGSLRLSCAASGFTFYYNAMGCYRQAPGKERELVASISSNGTSTYYADSVKGRFTISRDNAKNTVYLQMNSLKPEDTAVYYCNVDIFDPRTYDYWGQGTQVTVSS,low polyreactivity
7,QVQLVESGGGLVQAGGSLRLSCAASGFTFYYNAMGWYRQAPGKERELVASISRGTSTNYADSVKGRFTISRDNAKNTVYLQMNSLKPEDTAVYYCAAKSYSDYDYWGQGTQVTVSS,low polyreactivity
8,QVQLVESGGGLVQAGGSLRLSCAASGFTFYYNAMGWYRQAPGKERELVSIRFRGGNTYYADSVKVRFTISRDNAKNTVYLQMNSLKPVDTAVYYCNADDRVSTYVDFDYWGQGTQVTVSS,low polyreactivity
9,QVQLVESGGGLVQAGGSLRLSCAASGFTFYYYAMGLYRQAPGKERELVAAITYSGGSTYYADSVKGRFTISRDNAKNTVYLQMNSLKPEDTAVYYCAAEAIPRLSWWYGVDYWGQGTQVTVSS,low polyreactivity
10,QVQLVESGGGLVQAGGSLRLSCAASGFTFYYYAMGWYRQAPGKERELVAAINGGSSTNYADSVKGRFTISRDNAKNTVYLQMNSLKPDDTAVYYCAAETRFYRNIDKIYFVLDRVDYWGQGTQVTVSS,low polyreactivity
11,QVQLVESGGGLVQAGGSLRLSCAASGFTFYYYAMGWYRQAPGKERELVAAISDSGGITSYADSVKGRFTISRDNAKNTVYLQMNSLKPEDTAVYYCAAEWSQWPYDYWGQGTQVTVSS,low polyreactivity
12,QVQLVESGGGLVQAGGSLRLSCAASGFTFYYYAMGWYRQAPGKERELVAGINSDGNTYYADSVKGRFTISRDNAKNNVYLQMNSLKPEDTAVYYCAASKLWPKNFVRHDYWGQGTQVTVSS,low polyreactivity
13,QVQLVESGGGLVQAGGSLRLSCAASGFTFYYYAMGWYRQAPGKERELVARITSGGSTYYADSVKGRFTISRDNAKNTVYLQMISLKPEDTAVYYCNVDVSVEVAYWGQGTQVTVSS,low polyreactivity
14,QVQLVESGGGLVQAGGSLRLSCAASGFTFYYYAMGWYRQAPGKERELVATISSGGSTYYADSVKGRFTISRDNAKNTVYLQMNSLKPEDTAVYYCAADYLIYYLYEGSIKYGYWGQGTQVTVSS,high polyreactivity
15,QVQLVESGGGLVQAGGSLRLSCAASGFTFYYYAMGWYRQEPGKERELVAAISSRGGSTYYADSVKGRFTISRDNAKNTVYLQMNSLKREDTPVYYCAAVYKYGGATYRSTSYYYWGQGTQVTVSS,high polyreactivity
16,QVQLVESGGGLVQAGGSLRLSCAASGFTFYYYPMGWYRQAPGKERELVAAISSSGGRTYYADSVKGRFTISRDNSKNTVYLQMNSLKPEDTAVYYCAADRYFRSYDYWGQGTQVTVSS,high polyreactivity
17,QVQLVESGGGLVQAGGSLRLSCAASGFTFYYYTMGWYRQAPGKERELVAAITLSGSTTYYADSVKGRFTISRDNAKNTVYLQMNSLKPEDTAVYYCAAGFSYEWGYPTFDYWGQGTQVTVSS,low polyreactivity
18,QVQLVESGGGLVQAGGSLRLSCAASGFTFYYYTMGWYRQAPGKERELVAGITSRGGSTTYADSVKGRFTISRDNAKNTVYLQMNSLKPEDTAVYYCNARWAVHSGYDYWGQGTLVTVSS,high polyreactivity
19,QVQLVESGGGLVQAGGSLRLSCAASGFTIAPDAMGWYRPAPGKERELVADISYSGGSKYYADSVKGRFTISRDTAKNTVYLQMNSLKPEDTAVYYCNAVIWWYWGRSYAYNYWGQGTQVTVSS,high polyreactivity
20,QVQLVESGGGLVQAGGSLRLSCAASGFTIGKNAMGWYRQAPGKERELVAAISLSGGRTYADSVKGRFTISRDNAKNTVYLQTNSLKPEDTAVYYCAANRYPKFYWGQGTQVTVSS,high polyreactivity
21,QVQLVESGGGLVQAGGSLRLSCAASGFTIGSNVMGWYRQAPGKERELVAAISSRGGSTYYADSVKGRFTISRDNAMNTVYLQMNSLKPEDTAVYDCAADAYYRGGWGDYWGQGTQVTVSS,high polyreactivity
22,QVQLVESGGGLVQAGGSLRLSCAASGFTIGYNVMGWYRQAPGKERELVATISWNGARTYYADSVKGRFTISRDNAKNTVYLQMNSLKPEDTAVYYCAARRYYRGEYDYWGQGTQVTVSS,low polyreactivity

row,Sequence,polyreactivity (PSR sort gate)
1,QVQLVESGGGLVQAGGSLRLSCAASGFTIGYYVMGWYRQAPGKDRELVAAITRSGSRTYYADSVKGRFTISRDNAKNTVYLQMNSLKPEETAVYYCAADYKTFLRSFDYWGQGTQVTVSS,high polyreactivity
2,QVQLVESGGGLVQAGGSLRLSCAASGFTIHRYAMGWYRQAPGKERELVAAIRWSGGRTYYADSVKGRFTISRDNAKNTVYLQMNSLKPEDTAVYYCAARTNSPRGYGSDYWGKGTQVTVSS,high polyreactivity
3,QVQLVESGGGLVQAGGSLRLSCAASGFTIIRYAMGWYRPAPGKERELVATITRRGGSTYYADSVKGRFTISRDNAKNTVYLQMNSLKPEDTAVYYCAARIRPLYANVRYGYWGQGTQVTVSS,high polyreactivity
4,QVQLVESGGGLVQAGGSLRLSCAASGFTIISYTMGWYRQAPGKERELVAAIRGGGRTYYADSVKGRFTISRDNAKNTVYLQMNSQKPEDTAVYYCASRLRYGGHYDYWGQGTQVTVSS,high polyreactivity
5,QVQLVESGGGLVQAGGSLRLSCAASGFTIPTYTMGWYRQAPGKEREFVARITKRGGSTYYADSVKGRFTISRDNAKNTVYLQMNGLKPEDTAVYYCNARRYGKVVRSRYNYWGQGTQVTVSS,high polyreactivity
6,QVQLVESGGGLVQAGGSLRLSCAASGFTIPVYVMGWYRQAPGKERELVAAITRTGGRTYYADSVKGRFTISRDNAKNTVYLQMNSLKPEDTAVYYCAAFTHRYGISEFDYWGQGTQVTVSS,high polyreactivity
7,QVQLVESGGGLVQAGGSLRLSCAASGFTIQRYAMGWYRQAPGKERELVAAITSGGSTYYADSVKGRFTISRDNAKNTVYLQMNSLKPEDTAVYYCATRAVWSSWGRRYDSWGQGTQVTVSS,high polyreactivity
8,QVQLVESGGGLVQAGGSLRLSCAASGFTIRSYVMGWYRQAPGKEREFVAAISYRGGGTNYADSVKGRFTISRDNAKNTVYLQMNSLKPEDTAVYYCNARSGSSKSGYYYWGQGTQVTVSS,high polyreactivity
9,QVQLVESGGGLVQAGGSLRLSCAASGFTIRWYLMGWYRQAPGKERELVAAISWSGDRTYYADSVKGRFTISRDNAKNTVYLQMNSLKPEDTAVYYCNSLSAFQVDNYDYWGQGTQVTVSS,high polyreactivity
10,QVQLVESGGGLVQAGGSLRLSCAASGFTIRYYAMGWYRQAPGKERELVAAIRFSGGSTYYADSVKGRFTISRDNAKNTVYLQMNSLKPEDTAVYYCNARRRYGLDLGTFGYWGQGTQVTVSS,high polyreactivity
11,QVQLVESGGGLVQAGGSLRLSCAASGFTIRYYAMGWYRQAPGKERELVAAISSSGGSTYYADSVKGRFTISRDNAKNTVYLQMNSLKTEDTAVYYCAAYYHGRMDYWGQGTQVTVSS,high polyreactivity
12,QVQLVESGGGLVQAGGSLRLSCAASGFTIRYYTMGWYRQAPGKERELVAAITWSGGRTYYADSVKGRFTISRDNAKNTVYLQMNSLKPDETAVYYCAADVTKRASRDYYWGQGTQVTVSS,high polyreactivity
13,QVQLVESGGGLVQAGGSLRLSCAASGFTITYYVMGWYRQAPGKERELVAAISSGGRTYYADSVKGRFTISRDNAKNTVYLQMNSLKPEDTAVYYCARAISIYPGFGYWGQGTQVTVSS,high polyreactivity
14,QVQLVESGGGLVQAGGSLRLSCAASGFTIVHYAMGWYRQAPGKERELVAAITWNGGRTYYADSVKGRFTISRDTAKNTVYLQMNSLKPEDTAVYYCAVRYKSWYGFNYWGQGTQVTVSS,high polyreactivity
15,QVQLVESGGGLVQAGGSLRLSCAASGFTIYIYVMGWYRQAPGKETELVADITWSGGRTYYADSVKGRFTISRDNAKNTVYLQMNSLKPEDTAVYYCAASYPGLSYHKYEYWGQGTQVTVSS,high polyreactivity
16,QVQLVESGGGLVQAGGSLRLSCAASGFTIYWYAMGWYRQAPGKERELVAAITRSGSSTYYADSVKGRFTISRDNAKNTVYVQMNSLKPEDTAVYYSAALPYTPYYDAYDYWGQGTQVTVSS,high polyreactivity
17,QVQLVESGGGLVQAGGSLRLSCAASGFTIYYYAMAWYRQAPGKERELVAAISYSGGSTYYADSVKGRFTISRDNAKNTVYLQMNSLKPEDTAVYYCAVDWYGSYGYGGSQKSDYWGLGTQVTVSS,high polyreactivity
18,QVQLVESGGGLVQAGGSLRLSCAASGFTIYYYAMGWYRQAPGKERELVASISWRGGSTYYADSVKGRFTISRDNAKNTDYIQINSLKAEDTAVYYCAAQKRGSPGNRRDYWGQGTQVTVSS,high polyreactivity
19,QVQLVESGGGLVQAGGSLRLSCAASGFTIYYYAMGWYRQAPGKVRELVASITSGGSTYYADSVKGRFTISRDNAMNTVYLQMNSLKPEDTAVYYCAQTRFHSKEGDYWGQGTQVTVSS,low polyreactivity
20,QVQLVESGGGLVQAGGSLRLSCAASGFTLAFYGMGWYRQAPGKERELVAAISWSGDSTYYADSVKGRFTISRDNAKNTVYLQMNSLKPEDTAVYYCAKPKRRFYDRPSDYWGQGTQVTVSS,high polyreactivity
21,QVQLVESGGGLVQAGGSLRLSCAASGFTLALNAMGWYRQAPGKERELVAVINSGGSTNYADSVKGRFTISRDNAKNTVYLQMNSLKPEDTAVYYYWGQGTQVTESS,low polyreactivity
